Reference: the RNAGym collection of RNA variant scans (doi:10.1073/pnas.2313332121)
This sample holds only a part of the variants without activity.

B1: TPR 5TU (parent)
chain: GGAUCUUCUCGAUCUAACAAAAAAGACAAAUCUGCCACAAAGCUUGAGAGCAUCUUCGGAUGCAGAGGCGGCAGCCUUCGGUGGCGCGAUAGCGCCAACGUUCUCAACUAUGACACGCAAAACGCGUGCUCCGUUGAAUGGAGUUUAUCAUG

Variants of: B1
Assay: polymerase ribozyme fitness, log enrichment relative to wild type (log ratio); higher = more active; in vitro selection for triplet polymerase activity
In short: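 Fitness measures genotype enrichment against wild-type enrichment on a logarithmic scale, with inverse-variance-weighted averaging of replicates. The logarithm is base 2, and genotypes were kept only with ≥10 input reads and ≥1 read per output in Illumina sequencing. The sequenced libraries came from one triplicate in vitro selection round, including frozen incubation at −7 °C, of PCR-built, transcribed mutant libraries of each subunit of a heterodimeric triplet polymerase ribozyme.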

Point of comparison: U45C, “polymerase ribozyme fitness (log ratio)” value 0.188. Against it:
- G48A A52C C105U C108U A137C — lower, ≤ -4.2
- A49C C103G A115G — lower, ≤ -4.2
- A47C U104G G124U — within 0.2 log units, -0.000534
- G48C C87A U130G — lower, ≤ -4.2
- G48U U135C G143C — lower, -3.78
- A47U U61G U134A — lower, -3.8
- A47G G152U — lower, -2.47
- A49C A66U C75G C87G C93A A98G A115U U127G G152C — lower, ≤ -4.2
- G46A C93U C129G — lower, ≤ -4.2
- A47G G94U A147G — lower, ≤ -4.2
- A49C C76A C93U A113G G117A — lower, ≤ -4.2
- G46U — lower, -0.0995
- G46A — lower, -0.076
- G46C — lower, -0.9
- A47C G50A G83A — lower, -2.44
- A47G A91G — lower, -2.73
- G48A U53C G92C C95U A98C — lower, -1.65
- G46C C85U — lower, -1.16
- G46A G124C — lower, -1.46
- A47G G74A — lower, -3.67
- A47G C85U — lower, -1.36
- G46C G80C A97C U144G — lower, ≤ -4.2
- A47G G83C C87G G112U A120C C125A G136U — lower, ≤ -4.2
- A49C C75A G86U G143C — lower, -4.19
- G48U U78A A91U U102G U144C — lower, ≤ -4.2
- A47C G50C A52C C85G C105A G141U — lower, ≤ -4.2
- U45A U56A G65C A91U G92A U130C A147U — lower, ≤ -4.2
- G46U A138C — lower, -3.8
- A47G C85A C93A A98C A121U — lower, -4.11
- G46U C63G G94U U101G A137G A147C — lower, ≤ -4.2
- G48A U61A — lower, -2.86
- G48A A113C U134C A137C G140A U148G — lower, ≤ -4.2
- G46U U55G C76A A89G A106U — lower, ≤ -4.2
- G48C C85A — lower, -2.58
- G46U U144C — lower, -0.573
- A49C C54G C79U G88A C95G — lower, ≤ -4.2
- G48C A89C — lower, -0.506
- G48C G84A G143A — lower, -2.38
- A49C A52G U78C C93G U146C — lower, ≤ -4.2
- A47U U61A C118U — lower, -2.01
- U45A G83A A121U G141C U148G — lower, ≤ -4.2
- U45G A47U U56A G67C A89U C96A A97G A138C — lower, ≤ -4.2
- U45A G84U — lower, ≤ -4.2
- G48C G58C C99G — lower, ≤ -4.2
- A47U C93A — lower, -2.17
- G46A G71C U78A — lower, ≤ -4.2
- A49C G58C A106C U109A C114A — lower, ≤ -4.2
- A47C C69G G83A A119G U146C — lower, -2.18
- A47C G81C C87G C96U — lower, ≤ -4.2
- A47C C79U G83A C87U C99A C103U — lower, -4.14
- G46C A47U U53A C85U U130C A150G — lower, ≤ -4.2
- A47C G83A A122C — lower, -1.08
- G46C C54U — lower, -0.821
- A49C A60G — lower, -3.61
- A47C U56A C85U — lower, -0.721
- G48A U55G C85G C87G C149G — lower, ≤ -4.2
- A47C U53C C95A U104G A119U G136U — lower, -3.11
- U45A U53C C57U C85A C96A C123U C125A A142C — lower, ≤ -4.2
- A47C U55A — within 0.2 log units, 0.201
- U45A G84A U148A — lower, ≤ -4.2
- A47C C72U G94U U102C — lower, ≤ -4.2
- U45G — lower, -0.42
- U45G A49C G62C G94C C118G — lower, ≤ -4.2
- G48C G68A C79U C99A — lower, ≤ -4.2
- U45A C96G A121U — lower, -2.93
- A47G U53C U134G — lower, -3.45
- A47G G48A G70A U77G C95U C108G A122U — lower, ≤ -4.2
- G46C U55A A89U C93G A106C U127C G140C — lower, ≤ -4.2
- A47C A115C U144G — lower, -0.866
- A47C A91C C105G A120G G143U — lower, ≤ -4.2
- G48U U148C — lower, -3.36
- A47C U55G U56C C85U G133C G140C — lower, ≤ -4.2
- A49C A52G G81A C87U U102C C114G A150G — lower, ≤ -4.2
- A49C C57U A60G C76U C118A — lower, ≤ -4.2
- G46A G67U C87A C103G U111C G140A — lower, ≤ -4.2
- U45G G50C C57A G59A C75U G94C A106U A107U — lower, ≤ -4.2
- U45A C87U C132G U139C G143A U145G — lower, ≤ -4.2
- A49C A52G C93U A119U — lower, ≤ -4.2
- A47C G80A C95U U104G A120G — lower, -0.454
- G48C A49C — lower, -3.92
- G48C G50A C54U C85A C129G — lower, ≤ -4.2
- A47G A73U — lower, -1.81
- A47U A97G C132U — lower, -2.35
- A47C C99U A122U G141A — lower, -3.39
- A47C G83A — lower, -2.37
- A49C C76G C95U C114A G143U — lower, ≤ -4.2
- A47C U77A C79A A89U — lower, ≤ -4.2
- A49C A91C — lower, ≤ -4.2
- A47C C54G — lower, -1.14
- G48A C85U C114U A122C — lower, -2.44
- A47U G59A C96G — lower, -1.05
- U45G G94U G100C A150C — lower, ≤ -4.2
- G46A G92A — lower, -2.92
- A47G C93U — lower, -0.775
- U45G U61A — lower, -2.35
- G48C A52G — lower, -1.29
- G48U U55G — lower, -0.894
- A47U G58U G84A C93G U148A — lower, ≤ -4.2
- G48C G86A G141C U148G G152A — lower, -4.03
- A49C C87G — lower, ≤ -4.2
- U45A G50C C54G G67A C87A A91U A115C — lower, ≤ -4.2
- U45G A49C C63G G84A G141C — lower, ≤ -4.2
- U45A C118U A120C — lower, -2.58
- G46A U53G C57U G86A A115C — lower, ≤ -4.2
- A47G U102A — lower, -0.825
- A47C G50U G59A G70A C79U U82G C95U G124A U144G — lower, ≤ -4.2
- A47G G81C — within 0.2 log units, 0.162
- G46U C72U C87U — lower, -1.01
- A47C G48U C75U U77A G83C C96A C99A — lower, ≤ -4.2
- A49C G50C G71A U90C C93G G117U C123G — lower, ≤ -4.2
- A47C A73U G83C C118A — lower, ≤ -4.2
- A47U C93U C96U G152A — lower, -3.95
- A47C U82G A110G — lower, -3.62
- A47C G58C A97G C99G C129A G133U — lower, ≤ -4.2
- G48C U61A C93U U151A — lower, ≤ -4.2
- A47C A60G A107U — lower, -3.3
- G46A G94C — lower, -1.05
- G48C G59U G94A A119U — lower, -1.58
- G46A A49C G59C U61A G86U — lower, ≤ -4.2
- A47U U82G G84A A97G U102G G136C — lower, ≤ -4.2
- A47U U148C — lower, -2.46
- G48C C57A C72G — lower, ≤ -4.2
- G46A C54G — lower, -1.88
- G46C G50U G84U A121C G124U — lower, -3.31
- A47U G59A G124U — lower, -0.07
- A47G G65C A106G A120G — lower, -4.14
- A49C G50C C85A C103U A106G G117U A122U C131U U139G — lower, ≤ -4.2
- G48C C57A C99U U130C — lower, -2.37
- G46A A47G C72A C108U U144A — lower, ≤ -4.2
- G48C C51U C54U C57U U90C A138G U144A — lower, ≤ -4.2
- A49C C99U U102G U109A — lower, -2.46
- U45A U56C C57A C63G C87G G88C — lower, ≤ -4.2
- A47C U56A U144C U151G — lower, ≤ -4.2
- A47C G88U — lower, -3.96
- G48C G84A — lower, -3.2
- A49C G58A — lower, -4.08
- G48A G117U — lower, -0.676
- A47U A60U C95U G136A — lower, -1.58
- A47U U53A G133C — lower, -2.66
- A49C C87A C95A C123A — lower, ≤ -4.2
- U45A G68C U82G G83C G94A C118U — lower, ≤ -4.2
- A47G G50U C85G — lower, -3.89
- G46A C54A C57G G74U C87A A121G — lower, ≤ -4.2
- A47C U56A — lower, -0.282
- G48A A97G — lower, -0.198
- A47C G117A — within 0.2 log units, 0.357
- G48A C54U G86C A106C — lower, ≤ -4.2
- G46A U56A G83U — lower, -2.27
- A47C C87A C99U G136U G141C — lower, ≤ -4.2
- U45A C118A — lower, -3.79
- G48A C54U G84A G92U C99G U109G G133C — lower, ≤ -4.2
- A49C C96A U102G G141U — higher, 0.794
- A47C U104G — lower, -0.804
- G48U C85A U144C — lower, -2.1
- G46U C87U — lower, -0.944
- G48A G62A G68C C105U G126A G136C G141U U145G — lower, ≤ -4.2
- G48A U53A C85U C118U — lower, -2.36
- G46A G62U — lower, -4.09
- U45A C87U — lower, -3.28
- G46A G86A C87G U104G C116U C149U — lower, ≤ -4.2
- A47C A60C C72G U77G C87G G88U A110U A119G A147C — lower, ≤ -4.2
- G48U C95U — lower, -1.01
- U45A G48U G50C C85A C87A C95A U145C — lower, ≤ -4.2
- A47G U145G — lower, -0.0566
- A49C G50U U53G G81C C87U A89C A106U A150C — lower, ≤ -4.2
- G48C U134A — lower, -1.01
